Reference: patent US20170362317A1 (FOUNTAIN BIOPHARMA, published 2017)
Where a chain is given by its changes, count along the chain named.

Key:
[1] = biological target: T1, recombinant human interleukin-6 (IL6) (human, UniProt P05231 30-212); experiment: cell-based or functional assay
[2] = biological target: T1, recombinant human interleukin-6 (IL6); experiment: cell-based or functional assay; remark: listed apart in the source
[3] = biological target: T1, recombinant human interleukin-6 (IL6); experiment: SPR (BIAcore T200), IgG captured by anti-human IgG, IL6 injected at 0.4-25.6 nM
Method: IgG binding affinity was measured by using human antibody capture kit (GE healthcare) in BIAcore T200 system (GE healthcare). The mouse anti-human IgG was immobilized on a CMS sensor chip via amine coupling. Approximately 700 RU of purified anti-IL6 IgG in HBS-EP+ buffer were captured onto the immobilized surface. The recombinant human IL6 (R&D Systems) at concentrations ranging from 25.6 nM to 0.4 nM in HBS-EP+ buffer was injected for 2 minutes using a flow rate of 30 μl/min. Dissociation of bound antigen in HBS⁻EP⁺ buffer flow was followed for 7 minutes. The surfaces IgG were regenerated after each cycle using regeneration solution (3M MgCl₂). The dissociation constant (KD) was calculated as kd/ka.

recombinant human IL11 = biological target: T2, recombinant human IL11 (human, UniProt P20809 22-199); experiment: ELISA, plate coated with the cytokine at 2 µg/ml, FB704 in four-fold serial dilutions, HRP-labeled goat anti-human IgG, A450
T2 sequence (looked up): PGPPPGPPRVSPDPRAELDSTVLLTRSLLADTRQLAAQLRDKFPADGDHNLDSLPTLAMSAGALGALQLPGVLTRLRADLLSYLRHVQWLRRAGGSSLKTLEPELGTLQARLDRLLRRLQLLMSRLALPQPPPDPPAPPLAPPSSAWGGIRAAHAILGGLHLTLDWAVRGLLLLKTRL
Method: (§1) Plates were coated with recombinant human IL3, IL4, IL5, IL6, IL11, IL17A, CNTF, OSM, IGF-1 (R&D Systems), IL2, FGF (Prospec), VEGF, TNF-α, EGF (Peprotech) at 2 μg/ml in 0.1M NaHCO₃ buffer at 4° C. overnight. After being washed by PBS, the wells were blocked with 1% (w/v) BSA in PBS at RT for 1 h. Purified anti-IL6 antibodies in four-fold serial dilutions at a starting concentration of 2 μg/ml were placed into the wells and incubated at RT for 1 h. The plate was washed in PBS containing 0.1% (w/v) Tween 20 and then probed with HRP-labeled goat anti-human IgG (KPL) diluted 1:10,000 in 1% BSA-PBS for 40 min at RT. The plate was again washed and a TMB substrate solution was added to develop color. Stop solution (1M H₂SO₄) was then added and the absorption at 450 nm quantitated using VERSA max (Molecular Devices).
(§2) An ELISA assay as described herein was performed to confirm the binding specificity of high-affinity anti-IL6 antibodies described herein. Briefly, plates were coated with different cytokines as indicated in FIG. 3A (IL6 family cytokines) and FIG. 3B (non-IL6 family cytokines) and the binding activities of the FB704 antibody clone (i.e. Ag1-4-6) to those cytokines were examined.

recombinant human IL17A = biological target: T3, recombinant human IL17A (human, UniProt Q16552 20-155, limits assumed); experiment: as above
T3 sequence (looked up): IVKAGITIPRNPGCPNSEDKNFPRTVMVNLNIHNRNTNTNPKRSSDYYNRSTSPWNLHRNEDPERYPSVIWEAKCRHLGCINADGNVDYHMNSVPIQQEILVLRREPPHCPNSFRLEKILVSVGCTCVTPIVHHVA
Method: as §1, §2

recombinant human CNTF = biological target: T4, recombinant human CNTF (human, UniProt P26441 2-200); experiment: as above
T4 sequence (looked up): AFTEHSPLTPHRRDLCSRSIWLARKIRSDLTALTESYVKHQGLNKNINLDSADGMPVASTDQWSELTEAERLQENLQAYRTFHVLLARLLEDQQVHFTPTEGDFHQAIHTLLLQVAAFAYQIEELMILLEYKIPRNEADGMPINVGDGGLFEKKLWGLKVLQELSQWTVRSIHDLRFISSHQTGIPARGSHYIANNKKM
Method: as §1, §2

recombinant human OSM = biological target: T5, recombinant human OSM (human, UniProt P13725 26-221, limits assumed); experiment: as above
T5 sequence (looked up): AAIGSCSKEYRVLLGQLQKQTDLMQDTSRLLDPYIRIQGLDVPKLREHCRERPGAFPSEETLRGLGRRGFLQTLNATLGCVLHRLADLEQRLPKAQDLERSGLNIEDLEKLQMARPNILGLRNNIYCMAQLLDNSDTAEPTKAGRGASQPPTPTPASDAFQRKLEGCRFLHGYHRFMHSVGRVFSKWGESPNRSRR
Method: as §1, §2

recombinant human IL2 = recombinant human IL2 (human, UniProt P60568 21-153); experiment: as above
Sequence of recombinant human IL2 (P60568 21-153 limits assumed): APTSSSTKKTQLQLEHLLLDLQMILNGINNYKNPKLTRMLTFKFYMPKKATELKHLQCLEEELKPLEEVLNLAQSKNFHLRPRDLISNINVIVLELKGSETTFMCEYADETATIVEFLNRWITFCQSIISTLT
Method: as §1, §2

recombinant human IL3 = biological target: T6, recombinant human IL3 (human, UniProt P08700 20-152); experiment: as above
T6 sequence (looked up): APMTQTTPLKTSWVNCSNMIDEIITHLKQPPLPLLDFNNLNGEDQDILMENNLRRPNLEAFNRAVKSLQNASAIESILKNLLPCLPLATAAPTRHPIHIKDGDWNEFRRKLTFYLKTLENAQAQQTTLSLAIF
Method: as §1, §2

recombinant human IL4 = biological target: T7, recombinant human IL4 (human, UniProt P05112 25-153); experiment: as above
T7 sequence (looked up): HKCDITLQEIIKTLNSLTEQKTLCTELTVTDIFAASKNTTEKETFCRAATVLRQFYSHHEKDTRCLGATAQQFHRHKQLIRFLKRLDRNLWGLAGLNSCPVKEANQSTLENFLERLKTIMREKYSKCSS
Method: as §1, §2

recombinant human IL5 = biological target: T8, recombinant human IL5 (human, UniProt P05113 20-134); experiment: as above
T8 sequence (looked up): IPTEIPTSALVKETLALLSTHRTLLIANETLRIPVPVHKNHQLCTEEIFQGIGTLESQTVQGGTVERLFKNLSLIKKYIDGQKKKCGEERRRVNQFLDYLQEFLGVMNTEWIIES
Method: as §1, §2

recombinant human IGF-1 = recombinant human IGF-1 (human, UniProt P05019 49-118); experiment: ELISA, plate coated with the cytokine at 2 µg/ml, FB704 in four-fold serial dilutions, HRP-labeled goat anti-human IgG, A450 [Cont'd) B]
Sequence of recombinant human IGF-1 (P05019 49-118 limits assumed): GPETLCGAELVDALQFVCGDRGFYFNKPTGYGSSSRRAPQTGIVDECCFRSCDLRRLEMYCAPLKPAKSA
Method: as §1, §2

recombinant human VEGF = recombinant human VEGF (human, UniProt P15692-4 27-191, limits assumed); experiment: as above
Sequence of recombinant human VEGF (P15692 other isoform, or with tags, fused parts or gaps limits assumed): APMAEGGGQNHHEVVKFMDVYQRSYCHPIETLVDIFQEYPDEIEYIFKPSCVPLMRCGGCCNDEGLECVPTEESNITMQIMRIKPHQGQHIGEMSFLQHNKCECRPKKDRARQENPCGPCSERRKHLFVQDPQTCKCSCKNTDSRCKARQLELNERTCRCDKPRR
Method: as §1, §2

recombinant human TNF-α = recombinant human TNF-α (human, UniProt P01375 77-233); experiment: as above
Sequence of recombinant human TNF-α (P01375 77-233 limits assumed): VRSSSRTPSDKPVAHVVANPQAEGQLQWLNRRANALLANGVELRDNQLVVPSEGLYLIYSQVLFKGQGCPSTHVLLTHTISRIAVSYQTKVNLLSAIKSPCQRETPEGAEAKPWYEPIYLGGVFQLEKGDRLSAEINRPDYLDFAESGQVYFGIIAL
Method: as §1, §2

recombinant human EGF = recombinant human EGF (human, UniProt P01133 971-1023); experiment: as above
Sequence of recombinant human EGF (P01133 971-1023 limits assumed): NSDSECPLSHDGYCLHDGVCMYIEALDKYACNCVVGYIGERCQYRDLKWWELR
Method: as §1, §2

[4] = biological target: T1, recombinant human interleukin-6 (IL6); experiment: ELISA, plate coated with recombinant human IL6 at 2 µg/ml, FB704 in four-fold serial dilutions from 2 µg/ml, HRP-labeled goat anti-human IgG, A450
Method: as §1, §2

[5] = biological target: T1, recombinant human interleukin-6 (IL6); experiment: ELISA, plate coated with recombinant human IL6 at 2 µg/ml, FB704 in four-fold serial dilutions from 2 µg/ml, HRP-labeled goat anti-human IgG, A450 [Cont'd) B]
Method: as §1, §2

B1: Ag1-4-6 (fully human anti-IL6 IgG1 antibody) (antibody, V domains shown)
VH: EVQLVESGPALVKPTQTLTLTCTFSGFSLSTGGMSVSWIRQPPGKALEWLARIDWDDDKFYTPSLKTRLTISRDTSKNQVVLIMTNMDPVDTATYYCARMHIDDSNGYYSDAFHIWGQGTMVTVSS
VL: EIVLTQSPATLSVSPGERVTLSCRDSQSVSSTSLAWYQQKSGQAPRLLIYDTSNRATGIPARFSGGGSGTDFTLTISSLEPEDFAVYYCSFVSRPYPRFTFGQGTKVEIK
notes: also called FB704
Q: What does the source list for B1?
A: IC50 of inhibition of IL6-dependent B9 cell proliferation (WST-1, 72 h) [1]: 0.0468 µg/mL; inhibition percentage of control of STAT3 phosphorylation in U266 cells, antibody at 0.05 µg/ml [2]: 0%; inhibition percentage of control of STAT3 phosphorylation in U266 cells, antibody at 0.5 µg/ml [2]: 60%; Kd [3]: 0.75 nM; koff [3]: 0.00121 s⁻¹; kon [3]: 1.61e+06 M⁻¹ s⁻¹; binding result (recombinant human IL11): no binding (tested: 2 µg/ml); binding result (recombinant human IL17A): no binding (tested: 2 µg/ml); binding result (recombinant human CNTF): no binding (tested: 2 µg/ml); binding result (recombinant human OSM): no binding (tested: 2 µg/ml); binding result (recombinant human IL2): no binding (tested: 2 µg/ml); binding result (recombinant human IL3): no binding (tested: 2 µg/ml); binding result (recombinant human IL4): no binding (tested: 2 µg/ml); binding result (recombinant human IL5): no binding (tested: 2 µg/ml); binding result (recombinant human IGF-1): no binding (tested: 2 µg/ml); binding result (recombinant human VEGF): no binding (tested: 2 µg/ml); binding result (recombinant human TNF-α): no binding (tested: 2 µg/ml); binding result (recombinant human EGF): no binding (tested: 2 µg/ml); EC50 (read off the curve) [4]: ~0.01 µg/mL; EC50 (read off the curve) [5]: ~0.01 µg/mL

B2: HAg1T-3-10 (fully human anti-IL6 IgG1 antibody) (antibody, V domains shown)
VH: B1 VH with Y109F
VL: B1 VL
notes: also called HAgT1-3-10
Q: What does the source list for B2?
A: IC50 of inhibition of IL6-dependent B9 cell proliferation (WST-1, 72 h) [1]: 0.00456 µg/mL; inhibition percentage of control of STAT3 phosphorylation in U266 cells, antibody at 0.05 µg/ml [2]: 49%; inhibition percentage of control of STAT3 phosphorylation in U266 cells, antibody at 0.5 µg/ml [2]: 93%; Kd [3]: 0.27 nM; koff [3]: 0.0006 s⁻¹; kon [3]: 2.24e+06 M⁻¹ s⁻¹

B3: 1-4-62 (fully human anti-IL6 IgG1 antibody) (antibody, V domains shown)
VH: B1 VH
VL: B1 VL with S90L, F91V, V92R, S93N, R94N, P95W, Y96P
notes: also called parent clone
Q: With B3 as the binder, how does the “IC50 of inhibition of IL6-dependent B9 cell proliferation (WST-1, 72 h)” value [1] read?
A: 0.618 µg/mL

Q: What about the “inhibition percentage of control of STAT3 phosphorylation in U266 cells, antibody at 0.05 µg/ml” value [2] of the same binder?
A: 0%

Q: And the “inhibition percentage of control of STAT3 phosphorylation in U266 cells, antibody at 0.5 µg/ml” value [2]?
A: 8%

Q: What about the Kd [3] of the same binder?
A: 3.85 nM

Q: What about the koff [3] of the same binder?
A: 0.00166 s⁻¹

Q: And the kon [3]?
A: 438000 M⁻¹ s⁻¹
